Data: the nanobody polyreactivity screen of Harvey et al. (2022)

Experiment: yeast display, Sf9 membrane polyspecificity reagent, FACS + sequencing; frameworks hold sequencing errors
How it was run: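 In a synthetic yeast display library (Saccharomyces cerevisiae BJ5465), nanobody expression was induced with galactose for 36–48 hours. FACS gates were set low and high (top ~1%) using anti-HA fluorescence for expression and streptavidin fluorescence for binding of the Sf9 membrane reagent. Each polyreactivity label is drawn from the gate of origin.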
For “QVQLVESGGGLVQAGGSLRLSCAASGSTFFHYPMGWYIQATGKERELVAAISWSGGRTSYADSVKGRFTISRDNAKNTVYLQKNSLKPEDTAVYYCAARGRYKDVYRMDYWGQGTQVTVSS”, the “polyreactivity (PSR sort gate)” value was “high polyreactivity”.
In the case of “QVQLVESGGGLVQAGGSLRLSCAASGSTFFIYAMGWYRPAPGKERELVAAISWRDGSTYYADSVKGRFTISRDNAKNTVYLQMNSLKPEDTAVYYCAADYLLPWGIELDYWGQGTQVTVSS”, the “polyreactivity (PSR sort gate)” value is reported as “high polyreactivity”.
With “QVQLVESGGGLVQAGGSLRLSCAASGSTFFKYGMGWYRQAPGKERELVATISSRGGNTSYADSVKGRFTISRDNAKNTVYLLMNSLKPEVTAVYLCNAKLVYVGDTTTWGQGTQVTVSS” the “polyreactivity (PSR sort gate)” value was “low polyreactivity”.
With “QVQLVESGGGLVQAGGSLRLSCAASGSTFFLYAMGWYIQAPGKERELVAAISGSGGTTYYADSVKGRFTISRDNAKNTVYLQMNSLKPEDTAVYYCNKDYYPGSYDYWGQGTQVTVSS” the “polyreactivity (PSR sort gate)” value was “low polyreactivity”.
With “QVQLVESGGGLVQAGGSLRLSCAASGSTFFPNAMGWYRQAPGKERELVAAIRWRGGTYYADSVKVRFTISRDNAKNTVYLQMNSLKPEDTAVYYCATSVKPSYDYWGQGTQVTVSS” the “polyreactivity (PSR sort gate)” value was “low polyreactivity”.
With “QVQLVESGGGLVQAGGSLRLSCAASGSTFFPNGMGWYRQARGKEWELVAAITQDGGSTYYADSVKGRFTISRDNAKNTVYLQMNSLNPEDTAVYYCAASAGPYYEYGYWGQGTQVTVSS” the “polyreactivity (PSR sort gate)” value was “low polyreactivity”.
With “QVQLVESGGGLVQAGGSLRLSCAASGSTFFPYAMGWYRQAPGKERELVAGISSDGGTSYADSVKGRFTISRDNAKNTVYLQMNSLKPEDTAVYYCAALQADRDRYPAFDLMDYWGQGTQVTVSS” the “polyreactivity (PSR sort gate)” value was “low polyreactivity”.
With “QVQLVESGGGLVQAGGSLRLSCAASGSTFFRNAMGWYRQAPGKDRELVAAISSSGGRTYYADSVKGRFTISRDNAKNTVYLQMNSLKPVETAVYYCAVVSSHYKGPGRNGYDYWAQGTQVTVSS” the “polyreactivity (PSR sort gate)” value was “high polyreactivity”.
For “QVQLVESGGGLVQAGGSLRLSCAASGSTFFRNAMGWYRQAPGKERELVAAISKSGTSTYYADSVKGRFTISRDNAKNTVYLQMNSLKPEDTAVYYCAKYGFSYPQSYAYYYWGQGTQVTVSS”, the “polyreactivity (PSR sort gate)” value was “high polyreactivity”.
With “QVQLVESGGGLVQAGGSLRLSCAASGSTFFRYAMGWYRHAPVKERELVAAISASGGRTYYADSVKGRFTISRDNAKNTVYLLMNSLKPEDTAVYYCNRQYGPYQYYYWGQGTQVTVSS” the “polyreactivity (PSR sort gate)” value was “high polyreactivity”.
With “QVQLVESGGGLVQAGGSLRLSCAASGSTFFRYAMGWYRQAPGKERELVAAITTSGGNTYYADSVKGRFTISRDNAKNTVYLQMNSLKPEDTAVYYCNVLRGFPRYYYWGQGTQVTVSS” the “polyreactivity (PSR sort gate)” value was “high polyreactivity”.
For “QVQLVESGGGLVQAGGSLRLSCAASGSTFFRYARGWYIQAPGKEREFVAAISKRGGSTHYADSVKGRFTISRDNAKKTVYLQMNSLKPADTAVYYCAASSFTSSYNYWGQGTQVTVSS”, the “polyreactivity (PSR sort gate)” value was “high polyreactivity”.
For “QVQLVESGGGLVQAGGSLRLSCAASGSTFFSYAMGWYRQAPGKERDLVAAITSNGGTTHYADSVKGRFTISRDNAKNTVYLQMNSLKPEDTADYYCAKAQGHVRGSRGLQGGRYDYWGQGTQVTVSS”, the “polyreactivity (PSR sort gate)” value was “low polyreactivity”.
For “QVQLVESGGGLVQAGGSLRLSCAASGSTFFSYAMGWYRQAPGKERELVAAISWIDDGTYYADSVKGRFTISRDNAKNTVYLQMNSLKPEDTAVYYCAADIGAYRTWDYEYWGQGTQVTVSS”, the “polyreactivity (PSR sort gate)” value was “low polyreactivity”.
With “QVQLVESGGGLVQAGGSLRLSCAASGSTFFSYAMGWYRQAPGKERELVAVITGSDGRTFYADSVKGRFTISRDNAKNTVYLQMNSLKPEDTAVYYCAADAVFRATRYDRSTSEDDYWGQGTQVTVSS” the “polyreactivity (PSR sort gate)” value was “low polyreactivity”.
With “QVQLVESGGGLVQAGGSLRLSCAASGSTFFTNTMGWYRQAPGKERELVAAISKSGGSTYYADSVKGRFTISRDNAKNTVYLQMNSLKPEDTAVYYCAASDRYGGRDYWGQGTQVTVSS” the “polyreactivity (PSR sort gate)” value was “high polyreactivity”.
With “QVQLVESGGGLVQAGGSLRLSCAASGSTFFVYAMGWYRQSPGKERELVADITNSGGNTYYADSVKGRFTISRDNAKNTVFLQMISLKPEDTAVYYCSGEYWFTSYDSWGQGTQVTVSS” the “polyreactivity (PSR sort gate)” value was “high polyreactivity”.
In the case of “QVQLVESGGGLVQAGGSLRLSCAASGSTFFWYAMGWYRQAPGKEREFVAAITYRGGSTHYADSVKGRFTISRDNAKNTVYLQMNSLKPEDTAVYYCAARSLRYPYDYWGQGTQVTVSS”, the “polyreactivity (PSR sort gate)” value is reported as “low polyreactivity”.
For “QVQLVESGGGLVQAGGSLRLSCAASGSTFFYNAMGWYRQAPGKERELVAAISKRGDRTYYADSVKGRFTISRDNAKNTVYLQMNSLKPEDTAVYYCAADSYSFSYYIEYDYWGQGTQVTVSS”, the “polyreactivity (PSR sort gate)” value was “high polyreactivity”.
In the case of “QVQLVESGGGLVQAGGSLRLSCAASGSTFFYYAMGWSRQEPGKERELVASISSRGGSTYYADSVKGRFTISRDNAKNTVYLQMYSLKPEDTAVYYCAADLWAYGPLWRWSRADYDYWGQGTQVTVSS”, the “polyreactivity (PSR sort gate)” value is reported as “low polyreactivity”.
With “QVQLVESGGGLVQAGGSLRLSCAASGSTFFYYAMGWYRQAPGKERELVARISGGGSTNYADSVKGRFTISRDNAKNTVYLQMNSLKPEDTAVYYCAADRYHYYRYSYGRYGYWGQGTQVTVSS” the “polyreactivity (PSR sort gate)” value was “high polyreactivity”.
In the case of “QVQLVESGGGLVQAGGSLRLSCAASGSTFGAYAMGWYRQAPGKEMELVAAISRRGGSTYYADSVKGRFTISRDNAKNTVYLQMNSLKPEDTAVYYCNAVGTRVDGEHYYWGQGTKVTVSS”, the “polyreactivity (PSR sort gate)” value is reported as “high polyreactivity”.
With “QVQLVESGGGLVQAGGSLRLSCAASGSTFGAYAMGWYRQAPGKERELVAAISSSDGSTYYADSVKGRFTISRDTAKNTVYLQMNSLKPEDTAVYYCAAEYYSAVYIDEYWYDYWGQGTQVTVSS” the “polyreactivity (PSR sort gate)” value was “high polyreactivity”.
With “QVQLVESGGGLVQAGGSLRLSCAASGSTFGDNAMGWYRQAPGKEREFVAAITTSGTSTYYADSVKGRFTISRDNAKNTVYVQMNSLKPEDTAVYYCAAYSRAAAGFYSSRRDYYWGQGTQVTVSS” the “polyreactivity (PSR sort gate)” value was “low polyreactivity”.
In the case of “QVQLVESGGGLVQAGGSLRLSCAASGSTFGDYAMGWFRQAPGKERELVAAMNSGDSRNYADSVKGRFTISRDNAKNTVYLQMNSLKPEDTAVYYCAAEPWSISYVYYKYKYESWGQGTQVTVSS”, the “polyreactivity (PSR sort gate)” value is reported as “low polyreactivity”.
With “QVQLVESGGGLVQAGGSLRLSCAASGSTFGDYVMGWYRQAPGKERELVATITDSGGSTYYADSVKGRFTISRDNAKNTVYLQMNSLKPEDTAVYYCNKDFSVEVYDTAYNYYSYRYGYWGQGTQVTVSS” the “polyreactivity (PSR sort gate)” value was “low polyreactivity”.
For “QVQLVESGGGLVQAGGSLRLSCAASGSTFGENAMGWYRQAPGKERELVAAISDSGGDTYYADSVKGRFTISRDNAKNTVYLQMNSLKPEDTAVYYCAADRYGYWYAYYSWGQGTQVTVSS”, the “polyreactivity (PSR sort gate)” value was “low polyreactivity”.
With “QVQLVESGGGLVQAGGSLRLSCAASGSTFGFNAMGWYRPAPGKEREFVAAINTSGGNTYYADSVKGRFTISRDNAKNTVYLQMNSLKPEDTAVYYCNAREGHLYGYPYGYWGQGTQVTVSS” the “polyreactivity (PSR sort gate)” value was “low polyreactivity”.
With “QVQLVESGGGLVQAGGSLRLSCAASGSTFGFNAMGWYRQAPGKERELVAAITFSGGTTYYADSVKGRFTISRDNAKNTVYLQMNSLKPEDTAVYYCNADVKRDRVWGGDYWGQGTQVTVSS” the “polyreactivity (PSR sort gate)” value was “low polyreactivity”.
With “QVQLVESGGGLVQAGGSLRLSCAASGSTFGFYDMGWYRQAPGKERELVAAITSGDITYADSVKGRFTISRDNAKNTVYLQMNSLKPEDTAVYYCATTSYGYWFGYIPEVDYWGQGTQVTVSS” the “polyreactivity (PSR sort gate)” value was “low polyreactivity”.
With “QVQLVESGGGLVQAGGSLRLSCAASGSTFGFYTMGWYRQAPGKERELVAAISWSTGRTYYADSVKGRFTISRDNAKNTVYLQMNSLKPEDTAVYYCAARALDKYRFGGRYDYWGQGTQVTVSS” the “polyreactivity (PSR sort gate)” value was “low polyreactivity”.
